The record followed here is patent US20190071499A1 (published 2019).

In test [1] the target is T1, human IFN-α1 (human, UniProt P0DY56 24-189).
T1 construct: commercial recombinant protein; also called IFN-alpha 1beta; IFN-α1/13
Put plainly: ELISA or LIPS (Table 7 summary). Background: In an ELISA, binding on a coated surface is turned into a signal by an enzyme label.

Test [2] concerns the target T2, human IFN-α14 (human, UniProt P01570 24-189).
T2 construct: commercial recombinant protein; also called rhIFN-α14; IFN-α14 (ATGen)
Put plainly: ELISA or LIPS (Table 7 summary).

For test [3], the target named is T3, human IFN-α16 (human, UniProt P05015 24-189).
T3 construct: recombinant protein; also called rhIFN-α16
T3 sequence (P05015 24-189 limits assumed): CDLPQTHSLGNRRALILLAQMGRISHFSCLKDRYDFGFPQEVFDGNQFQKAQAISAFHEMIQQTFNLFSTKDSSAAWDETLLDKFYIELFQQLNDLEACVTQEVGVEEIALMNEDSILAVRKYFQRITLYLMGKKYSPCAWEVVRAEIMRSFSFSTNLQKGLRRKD
Put plainly: ELISA or LIPS (Table 7 summary).

For another test, the target named is T4, g1mIFN-α1 (mouse, UniProt P01572 24-189).
T4 construct: also called murine IFN-α1 (Gaussia luciferase fusion); not shown: Gaussia luciferase fusion partner
T4 sequence (looked up): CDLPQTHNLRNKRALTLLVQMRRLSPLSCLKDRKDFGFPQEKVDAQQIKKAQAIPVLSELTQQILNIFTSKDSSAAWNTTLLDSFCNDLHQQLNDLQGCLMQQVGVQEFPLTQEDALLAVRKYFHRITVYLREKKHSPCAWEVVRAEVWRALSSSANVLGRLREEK
Put plainly: LIPS.

The target in the next test is T5, g1mIFN-α9 (mouse, UniProt P09235 24-190).
T5 construct: also called murine IFN-α9 (Gaussia luciferase fusion); not shown: Gaussia luciferase fusion partner
T5 sequence (looked up): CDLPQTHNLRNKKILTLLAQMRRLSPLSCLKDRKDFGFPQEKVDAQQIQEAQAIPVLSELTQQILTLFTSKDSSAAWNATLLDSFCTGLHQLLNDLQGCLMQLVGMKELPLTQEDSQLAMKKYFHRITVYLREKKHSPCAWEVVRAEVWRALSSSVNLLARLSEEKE
Put plainly: LIPS.

Test [4] deals with T6, human Fc fusion mouse IFN-α4 (mouse, UniProt P07351 25-186).
T6 construct: bought (SinoBiological); also called murine IFN-α4; not shown: human Fc
T6 sequence (looked up): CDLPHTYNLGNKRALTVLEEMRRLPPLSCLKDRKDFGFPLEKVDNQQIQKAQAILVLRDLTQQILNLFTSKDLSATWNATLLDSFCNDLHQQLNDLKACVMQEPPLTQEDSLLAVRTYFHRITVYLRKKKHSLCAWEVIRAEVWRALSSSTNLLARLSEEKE
Put plainly: ELISA, human Fc fusion mouse IFN-α.

The target of test [5] is T7, human Fc fusion mouse IFN-α2 (mouse, UniProt P01573 24-190).
T7 construct: bought (SinoBiological); also called murine IFN-α2; murine INFA2; not shown: human Fc
T7 sequence (looked up): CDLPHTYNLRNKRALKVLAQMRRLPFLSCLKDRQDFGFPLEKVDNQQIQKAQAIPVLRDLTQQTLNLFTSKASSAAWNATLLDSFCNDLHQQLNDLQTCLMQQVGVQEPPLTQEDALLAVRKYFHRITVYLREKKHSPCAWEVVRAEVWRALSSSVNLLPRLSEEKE
Briefly: ELISA, human Fc fusion mouse IFN-α.

Test [6] concerns the target T1, human IFN-α1. Put plainly: cell-based or functional assay.
A further test has as its target human IFN-α5 (human, UniProt P01569 24-189, limits assumed). Put plainly: cell-based or functional assay.
Another test deals with human IFN-α6 (human, UniProt P05013 24-189, limits assumed). Put plainly: cell-based or functional assay.
human IFN-α6, sequence (P05013 24-189 limits assumed): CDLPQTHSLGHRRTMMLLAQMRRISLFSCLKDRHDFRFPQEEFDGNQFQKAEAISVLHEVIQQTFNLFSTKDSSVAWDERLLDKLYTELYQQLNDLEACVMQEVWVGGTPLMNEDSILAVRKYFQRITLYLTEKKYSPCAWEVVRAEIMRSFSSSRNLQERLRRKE
Test [7] concerns the target T2, human IFN-α14. Put plainly: cell-based or functional assay.
The target of the next test is human IFN-ω (human, UniProt P05000 24-195, limits assumed). Put plainly: cell-based or functional assay.
human IFN-ω, sequence (P05000 24-195 limits assumed): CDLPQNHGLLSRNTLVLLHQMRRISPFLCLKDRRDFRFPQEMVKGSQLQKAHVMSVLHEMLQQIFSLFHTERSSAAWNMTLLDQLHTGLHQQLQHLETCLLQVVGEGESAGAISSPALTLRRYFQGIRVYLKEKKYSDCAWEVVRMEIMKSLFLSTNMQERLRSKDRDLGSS
Another test addresses human IFN-α17 (human, UniProt P01571 24-189). Briefly: cell-based or functional assay.
The target in test [8] is T8, human IFN-α21 (human, UniProt P01568 24-189). Briefly: cell-based or functional assay.
T8 sequence (P01568 24-189 limits assumed): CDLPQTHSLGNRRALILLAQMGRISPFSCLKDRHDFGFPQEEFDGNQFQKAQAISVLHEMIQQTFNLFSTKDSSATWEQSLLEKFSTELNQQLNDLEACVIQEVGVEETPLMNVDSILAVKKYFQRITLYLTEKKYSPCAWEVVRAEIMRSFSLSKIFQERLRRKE
Another test concerns the target human IFN-α7 (human, UniProt P01567 24-189). Put plainly: cell-based or functional assay.
The target in another test is human IFN-α4 (human, UniProt P05014 24-189). Briefly: cell-based or functional assay.
human IFN-α4, sequence (P05014 24-189 limits assumed): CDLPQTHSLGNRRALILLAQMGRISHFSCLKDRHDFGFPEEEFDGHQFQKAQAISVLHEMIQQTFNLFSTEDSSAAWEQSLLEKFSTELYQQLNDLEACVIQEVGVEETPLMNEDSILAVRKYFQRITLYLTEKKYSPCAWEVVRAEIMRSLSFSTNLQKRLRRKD
The target in test [9] is T3, human IFN-α16. Put plainly: cell-based or functional assay.
In test [10] the target is T9, human IFN-α10 (human, UniProt P01566 24-189). Briefly: cell-based or functional assay.
T9 sequence (P01566 24-189 limits assumed): as the sequence (P05014 24-189 limits assumed) above, with A19G, H26P, G37R, F38I, E40Q, H46N, T132I, K134R counted along it
Test [11] concerns the target T8, human IFN-α21. Briefly: ELISA or LIPS (Table 7 summary).
Test [12] addresses T9, human IFN-α10. Briefly: ELISA or LIPS (Table 7 summary).
Test [13] has as its target T10, peptide 23 of human IFN-αW (IFN-ω) (human).
T10 construct: spotted on a microarray through a linker
T10 peptide: TGLHQQLQHLETCLLQVV
Briefly: peptide microarray, 18mer peptides of human IFN-αW.

Test [14] addresses T11, peptide 22 of human IFN-α2 (human).
T11 construct: spotted on a microarray through a linker
T11 peptide: YTELYQQLNDLEACVIQG
Briefly: peptide microarray, 18mer peptides of human IFN-α2.

human IFN-α7, sequence (P01567 24-189 limits assumed): as the sequence (P05014 24-189 limits assumed) above, with G10R, H26P, D35E, G37R, A51T, S116F, T132M, L152F, Q159K, R161G counted along it
T2 sequence (P01570 24-189 limits assumed): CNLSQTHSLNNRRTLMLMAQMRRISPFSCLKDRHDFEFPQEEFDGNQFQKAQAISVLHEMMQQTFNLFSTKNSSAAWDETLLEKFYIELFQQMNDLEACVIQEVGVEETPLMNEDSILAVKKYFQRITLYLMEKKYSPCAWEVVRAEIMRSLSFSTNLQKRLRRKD
T1 sequence (P0DY56 entry or part of it limits assumed): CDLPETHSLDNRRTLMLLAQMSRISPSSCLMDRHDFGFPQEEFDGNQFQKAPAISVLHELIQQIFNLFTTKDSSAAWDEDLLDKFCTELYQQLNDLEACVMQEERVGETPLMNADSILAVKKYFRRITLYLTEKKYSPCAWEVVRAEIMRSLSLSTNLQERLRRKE
human IFN-α5, sequence (P01569 24-189 limits assumed): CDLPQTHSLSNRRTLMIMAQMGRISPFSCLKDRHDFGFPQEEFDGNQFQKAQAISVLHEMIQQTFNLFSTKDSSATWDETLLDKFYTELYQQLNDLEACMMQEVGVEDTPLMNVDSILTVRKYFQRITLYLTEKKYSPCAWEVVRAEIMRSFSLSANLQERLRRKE
human IFN-α17, sequence (P01571 24-189 limits assumed): as the sequence (P05014 24-189 limits assumed) above, with H26P, F38L, E40Q, H46N, A51T, D95N, V106M, R161I counted along it

B1: 13B11 (antibody, human IgG1, kappa, V domains shown)
VH: DVQLLQSGGGLIQPGGSLRLSCAASGFTFKDYAMSWVRQAPGKGLEWVSVISRSGNIVDYVDSVKGRFTVSRDNSNNTLFLQMDGLRADDTAIYYCAKPKDMIVVVPAGFDSWGQGTLVSVSS
VL: DIQMTQFPSTLSASVGDSVTITCRASQSISAWLAWYQQKPGKAPKLLIYKGSRLENGVPSRFSGSGSGTEFTLTIGSLQPDDFATYYCQQYKTWTFGQGTKVEIKR
notes: human-derived IgG1, kappa; also called MAB 13B11; hMAB 13B11
With B1, the binding result with human IFN-α1 [1] is “binds”; with human IFN-α14 [2], “binds”; with human IFN-α16 [3], “binds”; in the test with g1mIFN-α1, “no binding”; with g1mIFN-α9, “no binding”; in [4], “no binding”. The binding result in [5] was “no binding”.

B2: 50E11 (antibody, human IgG1, kappa, V domains shown)
VH: QVQLVQSGAEMKKPGSSVKVSCKDFGGTFSVYGVNWVRQAPGQGLEWMGGLIPVIGPANYAQKFQGRITITADESTSTAYMELSSLRFDDTAIYYCVRDDNEYWGQGTLVTVSS
VL: EMVLTQSPATLSLSPGERATLSCRASQTVSTFLAWYQQKPGQVPRLLVYDISSRANGTPARFSGGGSGTDFTLTISSLELEDFAVYYCQWRSNWPPSLTFGGGTRVEIKR
For the molecule B2, the “IC 50 (ng/ml), ISRE dual luciferase reporter assay” value (“IC 50 (ng/ml)” for short) with human IFN-α1 [6] was 97.4 ng/mL; in the test with human IFN-α5 it was 0.91 ng/mL; in the test with human IFN-α6, 39.3 ng/mL; with human IFN-α14 [7], 9.2 ng/mL; with human IFN-ω, 113 ng/mL; with human IFN-α17, 2.31 ng/mL. The “IC 50 (ng/ml)” value with human IFN-α21 [8] turned out to be 3.05 ng/mL; with human IFN-α7 it was 1.9 ng/mL; in the test with human IFN-α4 it was 20.2 ng/mL; in the test with human IFN-α16 [9], 2.35 ng/mL; in the test with human IFN-α10 [10], 3.63 ng/mL.

B3: 25C3 (antibody, human IgG1, kappa, V domains shown)
VH: EMQLMESGGGLVQPGGSLRLSCVASGFTFKSFAMSWVRQAPGKGLEWVASVGSQGGSKYYAPSVKGRFSISRDNSNNTLYVQMNSLGVEDTAFYYCVKETDAVATMDALDMWGQGTLVIVST
VL: DIRVTQSPSSLSASVGDRVSISCQTSQSVNIYLNWYQQRPGKGPQLLISAASTLQSGVPSRFSGSGSGTDFILTIISLQPEDSASYYCQQGYITPYTFGQGTKVEIKR
notes: human-derived IgG1, kappa; also called MAB 25C3; hMAB 25C3
Regarding B3, the binding result is recorded as “binds” with human IFN-α1 [1]; “binds” with human IFN-α21 [11]; “binds” with human IFN-α16 [3]; “binds” with human IFN-α10 [12]; “no binding” with g1mIFN-α1; “no binding” in the test with g1mIFN-α9.

B4: 12H5 (antibody, human IgG1, kappa, V domains shown)
VH: QVQLIQSGPEVKRPGASVKVSCKASENTFDTHYINWVRQAPGQGLTWLGWLNPTTGKTGFPQKFKGRVILTSDTSLNTAYMEVSRLTSEDTAVYFCARVLKLSDEYNYGFDVWGQGTTVIVSS
VL: DIQVTQSPSSLSASIGDRVTITCRASQNILTFINWYQHKPGKAPKLLIYAASVLQNEVPSRFSGSGSGTDFTLTITSLQPDDFGTYYCQQTYLTPQCSFGQGTKVEIKR
B4: the “IC 50 (ng/ml)” value in the test with human IFN-α1 [6] was found to be 51.3 ng/mL; in the test with human IFN-α5, 22.6 ng/mL; with human IFN-α6, 3.55 ng/mL; with human IFN-α14 [7], 2.15 ng/mL; with human IFN-α17 it was 0.75 ng/mL; with human IFN-α21 [8], 13 ng/mL. Further, the “IC 50 (ng/ml)” value worked out at 0.64 ng/mL with human IFN-α7, 0.48 ng/mL with human IFN-α4, 33 ng/mL with human IFN-α16 [9] and 0.66 ng/mL with human IFN-α10 [10].

B5: 8H1 (antibody, human IgG1, kappa, V domains shown)
VH: QVQLVQSGAEVKKPGASVKVSCKASGQTFTSDDINWVRQAPGQGLEWMGWRNPNTQDTGYAQKFHGRLTLTSNSSISTSYLELSGLRSEDTAVYYCARAGTSTLTGHYFALGVWGQGTTVIVSS
VL: DIQLTQSPSSLSASVGDRVTITCQATQDISKYLNWYQQKPGKVPKLLIYETSNLEVGVPSRFSGSGSGTHFTLTISSLQAEDFATYYCQQYENFPFTFGGGTKVEIKR
With B5, the “IC 50 (ng/ml)” value in the test with human IFN-α1 [6] was 29 ng/mL; in the test with human IFN-α5, 1.78 ng/mL; with human IFN-α6, 77.7 ng/mL; with human IFN-α14 [7] it was 785 ng/mL; with human IFN-ω, 2.13 ng/mL; with human IFN-α17 it was 2.11 ng/mL. The “IC 50 (ng/ml)” value stood at 2.78 ng/mL with human IFN-α21 [8]; 0.9 ng/mL with human IFN-α7; 5.43 ng/mL with human IFN-α4; 1.86 ng/mL in the test with human IFN-α16 [9]; 2.69 ng/mL with human IFN-α10 [10].

B6: 26B9 (antibody, human IgG1, kappa, V domains shown)
VH: QILLQESGPGLVKPTETLSLTCSVSGDSISDSSHYWAWIRQPPGKGPEWIGSVYFSSMTHYNPSLKSRVSISVDKPKNQFSLKVTSVTVADTATYYCARQALARVGAMNWFDPWGQGSLVTVSS
VL: DIIMTQSPDSLPVSLGEGVTINCKSSQSVFFTSSNKSCLAWYQQKPGKSPKLLIYWASTRQSGVPDRFRGSGSGTDFSLTITSLQAEDVAVYFCQQCQTSPPTFGGGTRLEIKR
notes: human-derived IgG1, kappa; also called MAB 26B9; hMAB 26B9
For the molecule B6, the “IC 50 (ng/ml)” value with human IFN-α1 [6] came to 8.6 ng/mL; with human IFN-α5, 3.74 ng/mL; with human IFN-α6, 3.16 ng/mL; with human IFN-α14 [7], 2.01 ng/mL; in the test with human IFN-ω, 0.5 ng/mL; with human IFN-α17 it was 2.22 ng/mL. For the same molecule, the “IC 50 (ng/ml)” value was 4.65 ng/mL with human IFN-α21 [8]; 1.57 ng/mL in the test with human IFN-α7; 2.07 ng/mL with human IFN-α4; 4010 ng/mL with human IFN-α16 [9]; 1.84 ng/mL in the test with human IFN-α10 [10]. Also, the binding result in test [13] is on record as “binds”; with g1mIFN-α1, “no binding”; with g1mIFN-α9, “no binding”; in test [4] it was “no binding”; in [5] it was “no binding”; in test [14], “binds”.
